Data taken from publication PMC6504924, “Utilizing a Simple Method for Stoichiometric Protein Labeling to Quantify Antibody Blockade” (Scientific Reports, 2019).

Columns and labels:
[1] = biological target: the molecule itself; test: SDS-PAGE with and without reducing agent; purified growth factors resolved by SDS-PAGE in the presence and absence of 100 mM dithiothreitol (DTT)
[2] = biological target: T1, unlabeled VEGF165a homodimer purified in the same manner (with CDN N-terminal appendage); test: as above; details: both partners purified
T1 chain: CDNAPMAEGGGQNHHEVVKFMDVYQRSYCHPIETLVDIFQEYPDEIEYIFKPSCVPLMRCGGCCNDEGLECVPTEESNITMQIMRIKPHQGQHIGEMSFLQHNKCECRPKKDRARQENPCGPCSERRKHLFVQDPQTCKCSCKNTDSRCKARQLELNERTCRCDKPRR

B1: unlabeled PDGF-BB homodimer purified in the same manner (with CDN N-terminal appendage) (ligand)
chain: CDNSLGSLTIAEPAMIAECKTRTEVFEISRRLIDRTNANFLVWPPCVEVQRCSGCCNNRNVQCRPTQVQLRPVQVRKIEIVRKKPIFKKATVTLEDHLACKCETVAAARPVT
notes: three-amino acid N-terminal appendage left after HaloTEV cleavage of the modified TEV site EDLYFQC; platelet-derived growth factor subunit B (PDGF-B); Disulfide-linked homodimer; also called PDFG-B; source: HEK293T, transiently expressed as secreted HaloTag fusion, purified (HaloLink beads, HaloTEV release); not shown: HaloTag, N-terminal, cleaved
stoichiometry N [1]: 2

B2: unlabeled VEGF165a homodimer purified in the same manner (with CDN N-terminal appendage) (ligand)
chain: T1 chain
modifications: disulfide-linked homodimer; unlabeled; mature VEGF165 limits by convention (191-aa AUG-initiated isoform precursor, signal 1-26) / disulfide-linked homodimer; unlabeled; mature VEGF165 limits by …
stoichiometry N [2]: 2
